# Assay results reported in paper PMC3247260.
# Biological target: K63-linked diUb (UniProt P0CG48)
# Test: ITC; USP13-UBA12 (1.25 mM stock) injected into K63-, K48-, linear diUb (0.1 mM) or monoUb (0.2 mM), 25 injections of 1.5 µL; 50 mM Tris, 150 mM NaCl, pH 7.5; 25°C
substance,measurement,value
"tandem UBA domains of USP13 (USP13-UBA12, residues 652-776) (from UniProt Q92995 652-776) (domain or fragment)",Kd,1 µM
